Residue numbers refer to the chain shown, from its start. Names may count otherwise.

The subject of assay [1] is DmEcR-CDEF. In words: VP16/DmEcR-CDEF wild-type and mutants, 6xEcRE β-gal reporter transactivation in insect L57 cells. To be noted: for Fold increase over WT, 1 μM 20-hydroxyecdysone / Fold increase over WT, 1 μM GS™-E: VP16/DmEcR-CDEF; for steroid activity (summary of Table 14): 20E; for steroid activity (summary of Table 14) / non-steroid activity (summary of Table 14): DmEcR mutants; for non-steroid activity (summary of Table 14): GS™-E. The format is cell-based, Drosophila melanogaster. As to the method: The wild-type and mutant DmEcR-CDEF receptors were also used to make VP16/wild-type or mutantDmEcR-CDEF constructs as described in Example 1.10 and 1.11. VP16DmEcR-CDEF and a 6×EcREβ-gal reporter were transfected into L57 cells and the transfected cells were treated with 1 uM 20-hydroxyecdysone (20E) or GS™-E. The cells were harvested, lysed and the reporter activity was measured as described above in Example 6. The fold induction was calculated by dividing reporter activity in the presence of ligand with the reporter activity in the absence of ligand. From the fold induction, percent wild-type activity was calculated for each mutant.

For assay [2], the system named is CfEcR-DEF. Put plainly: GAL4/mutant CfEcR-DEF + VP16/LmUSP-EF GAL4-driven luciferase reporter transactivation in NIH3T3 cells. Format: cell-based, Choristoneura fumiferana. To be noted: NIH3T3 cells, relative to Gal4/wild-type CfEcR-DEF switch activity; for Fold increase over WT, 2.5 μM GS™-E: 2.5 μM GS™-E non-steroidal ligand; for Fold increase over WT, 2.5 μM PonA: 2.5 μM PonA steroidal ligand. The protocol: DNAs corresponding to the various switch constructs outlined in Example 1, specifically switches 1.1-1.13, were transfected into mouse NIH3T3 cells (ATCC) or L57 cells (Dr. Peter Cherbas; Indiana University) as follows. Standard methods for culture and maintenance of the cells were followed. […] Superfect™ (Qiagen Inc.) was used for 3T3 cells and Lipofectamine™ (LifeTechnologies) was used for L57 cells as the transfection reagents. For 12-well plates, 4 μl of Superfect™ or Lipofectamine™ was mixed with 100 μl of growth medium. One μg of reporter construct and 0.25 μg of each receptor construct of the receptor pair to be analyzed were added to the transfection mix. […] The cells were harvested and reporter activity was assayed.
Cells were harvested 40 hours after adding ligands. […] Twenty μl of lysate were assayed.
Briefly, Applicants mutated amino acid residues predicted to be critical for ecdysteroid binding into alanine and created GAL4/mutantCfEcR-DEF cDNA gene expression cassettes as described in Example 1 above using the Quikchange PCR-mediated site-directed mutagenesis kit (Stratagene, La Jolla, Calif.). The mutated and the WT cDNAs were tested in GAL4-driven luciferase reporter assays.
DNAs corresponding to the various switch constructs outlined in Example 1, specifically switches 1.1-1.2, were transfected into mouse NIH3T3 cells (ATCC) as follows. […] Two μl of Superfect™ was mixed with 100 μl of growth medium and 50 ng of either GAL4/wild-type EcR or Gal4/mutant EcR cassette, 50 ng of VP16/LmUSP-EF and 200 ng of pFRLuc were added to the transfection mix. […] The cells were harvested and reporter activity was assayed as described above.
(In general: A reporter such as luciferase makes a cellular process visible.)

B1: A107P: DmEcR-CDEF LBD substitution mutant, Alanine (A) to Proline (P) (protein)
chain: LTYNQLAVIYKLIWYQDGYEQPSEEDLRRIMSQPDENESQTDVSFRHITEITILTVQLIVEFAKGLPAFTKIPQEDQITLLKACSSEVMMLRMARRYDHSSDSIFFPNNRSYTRDSYKMAGMADNIEDLLHFCRQMFSMKVDNVEYALLTAIVIFSDRPGLEKAQLVEAIQSYYIDTLRIYILNRHCGDSMSLVFYAKLLSILTELRTLGNQNAEMCFSLKLKNRKLPKFLEEIWDV
modifications: Drosophila melanogaster
Consider B1, for which, in assay [1], the “Fold increase over WT, 1 μM 20-hydroxyecdysone” value was found to be 0.09 fold; the “Fold increase over WT, 1 μM GS™-E” value amounted to 0.9 fold; the “steroid activity (summary of Table 14)” value is “loss of most steroid activity”; the “non-steroid activity (summary of Table 14)” value is recorded as “very little effect”.

B2: N213A: DmEcR-CDEF LBD substitution mutant, Asparagine (N) to Alanine (A) (protein)
chain: B1 chain with P107A, N213A
modifications: Drosophila melanogaster
Turning to B2, in assay [1], the “Fold increase over WT, 1 μM 20-hydroxyecdysone” value is given as 0.01 fold; the “Fold increase over WT, 1 μM GS™-E” value is 0.08 fold; the “steroid activity (summary of Table 14)” value is reported as “lost sensitivity”; the “non-steroid activity (summary of Table 14)” value is on record as “lost sensitivity”.

B3: R95A/A110P: CfEcR-DEF LBD double mutant, R95A and A110P (protein, listed as Choristoneura fumiferana)
chain: LTANQQFLIARLIWYQDGYEQPSDEDLKRITQTWQQADDENEESDTPFRQITEMTILTVQLIVEFAKGLPGFAKISQPDQITLLKACSSEVMMLAVARRYDAASDSVLFPNNQAYTRDNYRKAGMAYVIEDLLHFCRCMYSMALDNIHYALLTAVVIFSDRPGLEQPQLVEEIQRYYLNTLRIYILNQLSGSARSSVIYGKILSILSELRTLGMQNSNMCISLKLKNRKLPPFLEEIWDV
Consider B3, for which, in assay [2], the “Fold increase over WT, 2.5 μM GS™-E” value stood at 0.4 fold and the “Fold increase over WT, 2.5 μM PonA” value was found to be 0.007 fold.

B4: Q21A: CfEcR-DEF LBD substitution mutant, Glutamine (Q) to Alanine (A) (protein, listed as Choristoneura fumiferana)
chain: B3 chain with Q21A, A95R, P110A
Turning to B4, in assay [2], the “Fold increase over WT, 2.5 μM GS™-E” value is reported as 0.32 fold and the “Fold increase over WT, 2.5 μM PonA” value came to 0.37 fold.

B5: I51A: CfEcR-DEF LBD substitution mutant, Isoleucine (I) to Alanine (A) (protein, listed as Choristoneura fumiferana)
chain: B3 chain with I51A, A95R, P110A
On to B5, for which, in assay [2], the “Fold increase over WT, 2.5 μM GS™-E” value was 0.003 fold and the “Fold increase over WT, 2.5 μM PonA” value is 0.004 fold.

B6: F48A: CfEcR-DEF LBD substitution mutant, Phenylalanine (F) to Alanine (A) (protein, listed as Choristoneura fumiferana)
chain: B3 chain with F48A, A95R, P110A
In the case of B6, in assay [2], the “Fold increase over WT, 2.5 μM GS™-E” value stood at 0.007 fold and the “Fold increase over WT, 2.5 μM PonA” value is 0.007 fold.

The values above are taken from patent US8715959B2, “Substitution mutant receptors and their use in a nuclear receptor-based inducible gene expression system” (priority 2001, dated 2014).
